By Kd is commonly meant a measure of binding affinity in units of concentration. A lower Kd goes with tighter binding. A word on the koff: it is a measure of how fast the partners let go of each other. A high value points to fast dissociation. A word on the kon: it is a measure of how fast the partners come together.

Data on 1 substance can be found in patent US20210140973A1.

Assay [1] has as its target human IgG4 purified from human serum (human). Kind of assay: latex agglutination inhibition, IgG4-sensitized latex, antibody in R1; free human IgG4 in sample 250 mg/dL.
Assay [2] shares this target. The assay is described as follows: latex agglutination inhibition, IgG4-sensitized latex, antibody in R1; free human IgG4 in sample 0.0 mg/dL.
For assay [3] the target is unchanged. Kind of assay: latex agglutination inhibition, IgG4-sensitized latex, antibody in R1; free human IgG4 in sample 31.3 mg/dL.
The target is the same in assay [4]. The assay is described as follows: SPR (Biacore), IgG4 immobilized. (SPR reads the build-up and loss of mass on a sensor chip optically.)
Assay [5] has the same target. The assay is described as follows: latex agglutination inhibition, IgG4-sensitized latex, antibody in R1; free human IgG4 in sample 1000 mg/dL.
For assay [6] the target is unchanged. Kind of assay: SPR (Biacore), IgG4 immobilized on chip by amino coupling, antibody as analyte.
Assay [7] has the same target. Kind of assay: latex agglutination inhibition, IgG4-sensitized latex, antibody in R1; free human IgG4 in sample 500 mg/dL.
Assay [8] shares this target. The assay is described as follows: latex agglutination inhibition, IgG4-sensitized latex, antibody in R1; free human IgG4 in sample 125 mg/dL.

human IgG4 purified from human serum (human), sequence (constant, as listed by the source limits assumed): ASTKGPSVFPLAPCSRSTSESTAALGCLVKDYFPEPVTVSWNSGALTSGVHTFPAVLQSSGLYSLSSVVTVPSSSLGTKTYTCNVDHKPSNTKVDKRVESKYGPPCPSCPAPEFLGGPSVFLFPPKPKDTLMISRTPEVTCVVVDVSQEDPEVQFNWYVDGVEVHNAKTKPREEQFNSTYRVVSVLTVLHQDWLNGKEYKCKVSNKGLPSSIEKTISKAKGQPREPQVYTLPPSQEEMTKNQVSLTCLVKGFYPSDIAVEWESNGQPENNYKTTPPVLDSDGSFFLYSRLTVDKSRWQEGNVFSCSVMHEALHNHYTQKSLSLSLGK

For “commercially available antibody HP6025 (Millipore Corporation)”, the Absorbance change amount in 800 nm in assay [1] is 0.0034; in assay [2] it was 0.003; in assay [3], 0.0036; in assay [5], 0.003; in assay [7], 0.0031; in assay [8] it was 0.0033. Also, the ratio of binding rate constant ka to those of the MaI4-08 and MaI4-09-produced antibodies in assay [4] is < 0.01 fold. The dissociation constant Kd in assay [6] stood at 408 nM. The off-rate constant (koff) in assay [6] was determined as 0.000681 s⁻¹. The on-rate (kon) in assay [6] was determined as 1670 M⁻¹ s⁻¹.
